The results in this text go back to patent publication US20220408730A1, “PLANT TREATMENT” (INSTITUTO SUPERIOR DE AGRONOMIA, priority 2019, published 2022).

One experiment has as its system P. cinnamomi. The experiment in a line: Potted young cork oak inoculated with P. cinnamomi, extension of root lesions. It is filed as in vivo, Quercus suber. As to conditions: plants sprayed; for root lesion severity: compared with inoculated control. The method, then:
In a separate experiment, potted young cork oak plants (Quercus suber) were inoculated with P. cinnamomi and incubated under greenhouse conditions. The plants were sprayed with potassium phosphonate, salicylic acid, Blad and other compounds/extracts under study. The severity of the infection was assessed by quantifying the extension of plant root lesions.

The next experiment relates to P. chlamydospora. Description: Pruning wound protection under real vineyard conditions, wounds brushed with P. chlamydospora spores. In kind it is in vivo, grapevine. The conditions noted are these: for fungi re-isolated in vitro from the treated wood: culture-dependent methods. The method, then: In an experiment designed as an attempt to protect pruning wounds from esca fungal infection, a couple of surprising observations were made when immediately after pruning under real vineyard conditions, the fresh wounds were brushed with 50 μl of water (control), or of Blad, the commercial fungicide Switch or copper oxychloride solutions (24 replicates for each treatment), and 24 h, 1 month and 2 months afterwards the pruning wounds were brushed with P. chlamydospora spore suspensions. […] On top of that, the diversity of fungi that could be re-isolated in vitro (using culture-dependent methods) from that wood was also lower. […] This remarks the efficient fungicide activity of the two chemicals on P. chlamyobspora, although this fungus seems to be less affected than other natural endophytes of the grapevine. The applicant's analyses of the mycobiome by metabarcoding using Illumina® next-generation sequencing (NGS) techniques detected only minor changes in some taxa composition and in colonization success of some endophytes in grapevine wood after a single copper application. The copper/systemic fungicides didn't change the mycobiome composition in major ways and didn't even directly advantage the pathogen.

In the next experiment the test system is external fungi. The experiment in a line: Fungicides in vitro on potato dextrose agar Petri dishes. It is filed as cell-based. As to conditions: PDA plus individual fungicides.
In another experiment the test system is grapevine wood mycobiome. The experiment in a line: Grapevine wood mycobiome composition and networks after fungicide treatments (metabarcoding). The conditions noted are these: foliar application / spray. In kind it is in vivo, Vitis vinifera cv Cabernet Sauvignon. The text has this:
Wood samples were carefully collected from grapevine rooted cuttings of Vitis vinifera cv Cabernet Sauvignon grown under greenhouse conditions, which underwent different inoculations and fungicide treatments and their mycobiomes identified by metabarcoding using Illumina® next-generation sequencing (NGS) techniques. The barplots represented in FIG. 2 show the relative abundances of grapevine wood taxa in plants subjected to different fungicide treatments and inoculation types.
FIG. 4 illustrates the effect of fungicide applications on the grapevine wood relative taxa abundance.
In FIG. 4, the differential heat tree matrix depicts the changes in taxa abundance between different fungicide treatments. The size of the individual nodes in the grey cladogram depicts the number of taxa identified at that taxonomic level. The smaller cladograms show pairwise comparisons between each treatment, with the colour illustrating the log2 fold change: a red node indicates a lower abundance of the taxon in the tissue group stated on the abscissa, than in the tissue group stated on the ordinate. A blue node indicates the opposite.
The networks presented in FIG. 5 show how Blad creates a different link among taxa, when compared with control and other fungicides.

Experiment [1] has as its system Phaeomoniella chlamydospora. Description: Relative abundance of P. chlamydospora in wood of potted grapevine cuttings (metabarcoding, greenhouse). In kind it is in vivo, Vitis vinifera cv Cabernet Sauvignon. The conditions noted are these: for relative abundances (%) of P. chlamydospora: fungicide treatment per column. An excerpt: Wood samples were carefully collected from grapevine rooted cuttings of Vitis vinifera cv Cabernet Sauvignon grown under greenhouse conditions, which underwent different inoculations and fungicide treatments and their mycobiomes identified by metabarcoding using Illumina® next-generation sequencing (NGS) techniques.
On top, barplots grouped by ‘Inoculation’ type; bottom, barplots grouped by ‘Fungicide’ treatment.
In a subsequent experiment (see also below), potted vines were co-inoculated with P. chlamydospora and a skopobiota (spore suspensions from four fungal species naturally occurring in the grapevine microbiome).
C22 and Aureobasidium pullulans AU86. All fungi were maintained in Petri dishes with vents, on potato dextrose agar medium (Difco™), at 25° C., in the dark.

Experiment [2] is described as follows: Early growth at bud break after application onto pruning wound. The conditions noted are these: 50 μl onto the pruning wound, one treatment per plant. In kind it is in vivo, grapevine. The method, then: The photos were taken at the same plant a couple of months later, at bud break. Compare with the natural development state of the vineyard in the background. Twenty-four replicates were prepared for each treatment.

For the next experiment, the system named is Trichoderma gamsii. The experiment in a line: Root browning and necrotic lesions score in carrot roots. It is filed as in vivo, carrot cv Nantes. The method, then:
(§1) Twelve carrot seeds cv Nantes were sown in soil containing the different combinations of SLB described above, as well as in positive and negative controls, for a total of 12 treatments (see below). Four weeks after sowing, six mycelium plugs of Trichoderma gamsii were added to each treatment tests, with the exception of the ‘negative control’.
A combination of factors, in which the presence of Trichoderma gamsii was determinant, induced the presence of root browning and necrotic lesion, as shown in FIG. 32.
Carrot roots of each biological replicate, grown under different treatments, were examined to assess differences in the development of root browning and necrotic lesions.
(§2) Similarly to what described in section ‘Effects on the growth of nine-week-old carrots’, the same skopobiota-loaded bentochar treatments were tested also in combination with a weekly spray of Blad on carrot leaves. The tested Blad concentration was 2 mL Blad per L of water.

Experiment [3] can be described thus: Growth of nine-week-old carrots in soil with skopobiota-loaded bentochar, with or without Blad spray. It is filed as in vivo, carrot cv Nantes. The method, then: as §1
Nine weeks after sowing, carrots were examined for three parameters: (1) above-ground growth, (2) number of fully unfolded leaves, and (3) presence of necrotic lesions or browning in roots.
as §2
The same parameters described in ‘Effects on the growth of nine-week-old carrots’ were assessed.

[4] abbreviates: With Blad, weekly spray on leaves, 2 mL Blad per L of water.

“Also recorded” adds a separate entry of the source.

As to “potassium phosphonate [reference compound]”, the root lesion severity entry in the experiment with P. cinnamomi was “lower than the inoculated control”.
Regarding `[Cl-].[Cu+2].[Cu+2].[OH-].[OH-].[OH-]` [copper, copper oxychloride], the “fungi re-isolated in vitro from the treated wood” value in the experiment with P. chlamydospora is recorded as “nothing but P. chlamydospora could be re-isolated”. Also, the “brown streaking of artificially infected shoots” value in the experiment with P. chlamydospora (fresh pruning wounds brushed with 50 μl, then P. chlamydospora spores) is recorded as “darker brown streaking”. For the same molecule, the “contamination of PDA Petri dishes containing the fungicide” value in the experiment with external fungi was “to a minor extent”.
For `O=C(O)c1ccccc1O` [salicylic acid, reference compound], in the experiment with P. cinnamomi, the root lesion severity entry is listed as “lower than the inoculated control”.

B1: Blad: 173-residue polypeptide (SEQ ID NO: 4), residues 109-281 of Lupinus β-conglutin precursor; main subunit of the 210 kDa oligomer BCO (protein)
chain: ARGARGGLNARGASNPRTYRHISPHESERSERGLNARGPHEGLNTHRLETYRLYSASNARGASNGLYLYSILEARGVALLEGLARGPHEASPGLNARGTHRASNARGLEGLASNLEGLNASNTYRARGILEVALGLPHEGLNSERLYSPRASNTHRLEILELEPRLYSHISSERASPALAASPTYRVALLEVALVALLEASNGLYARGALATHRILETHRILEVALASNPRASPARGARGGLNALATYRASNLEGLTYRGLYASPALALEARGILEPRALAGLYSERTHRSERTYRILELEASNPRASPASPASNGLNLYSLEARGVALVALLYSLEALAILEPRILEASNASNPRGLYTYRPHETYRASPPHETYRPRSERSERTHRLYSASPGLNGLNSERTYRPHESERGLYPHESERARGASNTHRLEGLALATHRPHEASNTHRARGTYRGLGLILEGLNARGILEILELEGLYASNGLASP
On to B1, for which the “changes in the grapevine wood mycobiome” value in the experiment with grapevine wood mycobiome is reported as “created a different network of interactions in the wood mycobiome; also recorded: induced marked changes in the grapevine wood mycobiome”. For the same molecule, the “fungi re-isolated in vitro from the treated wood” value with P. chlamydospora is on record as “many other endophytes”. Further, the “relative abundances (%) of P. chlamydospora” value in experiment [1] (NO-INOCULATION, potted rooted grapevine cuttings, greenhouse) is given as 3.78%; in experiment [1] (inoculated with P. chlamydospora + skopobiota at separate locations in the trunk), 1.34%; in experiment [1] (inoculated with P. chlamydospora alone) it was 6.31%. Moreover, in experiment [1] (potted vines co-inoculated with P. chlamydospora and a skopobiota (four fungal species)), the “relative abundance of P. chlamydospora” value was 1%. Also, the “relative abundance of the inoculated pathogen” value in experiment [1] (potted vines inoculated with P. chlamydospora and sprayed) is on record as 6%. Besides, in experiment [2], the “early growth several months after pruning” value is recorded as “boost observed in the early growth”. Further, in the experiment with Trichoderma gamsii (With Blad, weekly spray, 2 mL Blad per L of water), the “Total score of root symptoms” value came to 2. Further, the “root symptomatology compared with the positive control” value in the experiment with Trichoderma gamsii (in words) was “strongly reduced the development of root symptoms”. Besides, the “root lesion severity versus non-inoculated control” value with P. cinnamomi is listed as “did not differ significantly from the non-inoculated control”. In addition, the root lesion severity entry in the experiment on P. cinnamomi is listed as “only treatment producing excellent results on the infection levels; also recorded: lower than the inoculated control”; in the experiment on P. cinnamomi (listed as BLAD) it was “lowest lesion severity”. Also, the “Above-ground growth (% of control) Mean ± SD” value in experiment [3] (setting [4]) is reported as 98% ± % of control. The “Number of leaves (% of control) Mean ± SD” value in experiment [3] (setting [4]) was 108% ± % of control. Moreover, the “number of leaves of carrots” value in experiment [3] (in words, compared with treatments without Blad) is “increases the overall number of leaves”. For the same molecule, in experiment [3] (in words, weekly spray with Blad), the “above-ground growth of carrots” value is reported as “positively affected”.
